B1: plasmin-inhibiting polypeptide comprising the amino acid sequence set forth in SEQ ID NO:4 (designed binder)
chain: NAEICLLPLDTGPCRARLLRYYYDRYTQSCRQFLYGGCEGNANNFYTWEACDDACWRIEKVPK
B2: plasmin-inhibiting polypeptide comprising the amino acid sequence set forth in SEQ ID NO:6 (designed binder)
chain: NAEICLLPLDYGPCRARLLRYYYDRYTQSCRQFLYGGCEGNANNFYTWEACDDACWRIEKVPK
B3: plasmin-inhibiting polypeptide comprising the amino acid sequence set forth in SEQ ID NO:5 (designed binder)
chain: NAEICLLPLDYGPCRARLLRYYYDRYTQSCRQFLYGGCEGNANNFYTWEACDDACWRIEK
B4: plasmin-inhibiting polypeptide comprising the amino acid sequence set forth in SEQ ID NO:3 (designed binder)
chain: NAEICLLPLDTGPCRARLLRYYYDRYTQSCRQFLYGGCEGNANNFYTWEACDDACWRIEK

These binders were tested against human plasmin (human, UniProt P00747 97-810, limits assumed) (assay: cell-based or functional assay).
Chain of human plasmin (P00747 97-810 limits assumed): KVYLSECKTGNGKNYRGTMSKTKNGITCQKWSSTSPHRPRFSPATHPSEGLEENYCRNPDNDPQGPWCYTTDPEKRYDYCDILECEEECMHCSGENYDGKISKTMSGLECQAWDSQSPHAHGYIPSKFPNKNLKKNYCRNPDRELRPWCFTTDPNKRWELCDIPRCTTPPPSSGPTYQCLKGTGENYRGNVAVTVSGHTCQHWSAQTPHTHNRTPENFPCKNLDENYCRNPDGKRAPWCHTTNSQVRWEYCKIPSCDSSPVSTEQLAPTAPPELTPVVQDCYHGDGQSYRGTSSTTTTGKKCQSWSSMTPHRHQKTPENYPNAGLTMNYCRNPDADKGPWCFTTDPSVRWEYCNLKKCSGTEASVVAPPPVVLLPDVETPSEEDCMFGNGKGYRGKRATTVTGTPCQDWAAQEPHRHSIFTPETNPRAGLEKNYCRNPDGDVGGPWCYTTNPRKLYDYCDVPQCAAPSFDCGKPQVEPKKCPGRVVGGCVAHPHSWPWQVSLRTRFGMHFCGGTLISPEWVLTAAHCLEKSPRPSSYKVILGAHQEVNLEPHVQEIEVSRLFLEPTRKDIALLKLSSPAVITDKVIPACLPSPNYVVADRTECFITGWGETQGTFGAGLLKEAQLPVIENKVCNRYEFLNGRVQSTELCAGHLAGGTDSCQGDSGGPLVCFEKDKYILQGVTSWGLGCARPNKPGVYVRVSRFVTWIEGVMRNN

Row | Binder | IC50 (nM), inhibition of plasmin activity on chromogenic substrate S2251
1 | B1 | 0.8 nM
2 | B2 | 1.8 nM
3 | B3 | 3.4 nM
4 | B4 | 1.8 nM
